In paper PMC12673129, “A GPER-PKA-Centrin axis regulates centrosome numbers and centriole integrity in colon cancer cells” (Communications Biology, 2025):

Biological target: catalytic subunit α of PKA (PKA-Cα) (human (endogenous in HCT116 and HCT-15), UniProt P17612 1-351)
Test: co-IP; immunoprecipitation with anti-PKA Cα (4782, Cell Signaling) and protein-G Sepharose from 2 mg HCT116 lysate, 2 h at 4 °C, IP lysis buffer (50 mM tris/HCl pH 7.4, 150 mM NaCl, 0,25% NP-40); cells mitotically arrested (2 µM dimethylenastron, 16 h) or asynchronous with DMSO, E2, BPA, DES or G-1 for 48 h; Western blot, Centrin-pS170 band normalised to precipitated PKA Cα
Conditions: partners not purified

B1: Centrin-2 phosphorylated at serine 170 (Centrin-2-pS170) (natural protein, human (endogenous in HCT116 and HCT-15), UniProt P41208 1-172, looked up)
chain: MASNFKKANMASSSQRKRMSPKPELTEEQKQEIREAFDLFDADGTGTIDVKELKVAMRALGFEPKKEEIKKMISEIDKEGTGKMNFGDFLTVMTQKMSEKDTKEEILKAFKLFDDDETGKISFKNLKRVAKELGENLTDEELQEMIDEADRDGDGEVSEQEFLRIMKKTSLY
modifications: phosphoserine at 170
notes: Centrin-2, human, endogenous, the form phosphorylated at S170 as detected by the anti-Centrin-2-pS170 antibody (raised against Cys-LRIMKKT(pS)LY172); NM_004344.3 is printed for the Centrin wild-type expression vector, not for the endogenous protein of the co-IP; also called Centrin-pS170; phosphorylated Centrin-2; source: endogenous, HCT116 and HCT-15 lysates
fold increase of co-precipitated Centrin-pS170 (normalised to PKA-Cα) with BPA, relative to DMSO: 1.8 fold
fold increase of co-precipitated Centrin-pS170 (normalised to PKA-Cα) with DES, relative to DMSO: 1.6 fold
fold increase of co-precipitated Centrin-pS170 (normalised to PKA-Cα) with E2, relative to DMSO: 1.4 fold
